{
  "source": "paper PMC9860126",
  "about": "“Mechanistic insights into the nickel-dependent allosteric response of the Helicobacter pylori NikR transcription factor”",
  "binders": {"B1": {"name": "ureA promoter 32 bp (FA) (dsDNA)", "DNA 1": "ATATAACACTAATTCATTTTAAATAATAATTA", "DNA 2": "TAATTATTATTTAAAATGAATTAGTGTTATAT"}, "B2": {"name": "ureA-perf promoter 32 bp (dsDNA)", "DNA 1": "B1 DNA 1 with A6T, C7T, C9T", "DNA 2": "B1 DNA 2 with G24A, G26A, T27A"}},
  "key": {"HpNikR I127A": {"target": "HpNikR I127A (Helicobacter pylori G27, UniProt A1YSQ9 1-148, I127A)", "assay": "fluorescence anisotropy; apo (no Ni); FA: 5 nM DNA, 20 mM Tris pH 7.6, 100 mM NaCl, 3 mM MgSO4, temperature not stated (Ni loading 1.2 eq NiSO4 per monomer at RT). EMSA: 20 mM Tris pH 7.5, 100 mM KCl, 3 mM MgCl2, 0.1% IGEPAL, 5% glycerol, 0.1 mg/ml herring sperm DNA, RT; gel with 800 uM NiSO4 at 4 C", "conditions": "protein: recombinant; tags: none stated; chain copies: 4; label: fluorescein on internal thymine (T14 of strand 1); blunt"}, "HpNikR E62A [1]": {"target": "T1, HpNikR E62A (Helicobacter pylori G27, UniProt A1YSQ9 1-148, E62A)", "assay": "fluorescence anisotropy; apo (no Ni); FA: 5 nM DNA, 20 mM Tris pH 7.6, 100 mM NaCl, 3 mM MgSO4, temperature not stated (Ni loading 1.2 eq NiSO4 per monomer at RT). EMSA: 20 mM Tris pH 7.5, 100 mM KCl, 3 mM MgCl2, 0.1% IGEPAL, 5% glycerol, 0.1 mg/ml herring sperm DNA, RT; gel with 800 uM NiSO4 at 4 C", "conditions": "protein: recombinant; tags: none stated; chain copies: 4; label: fluorescein on internal thymine (T14 of strand 1); blunt"}, "HpNikR N32A [2]": {"target": "T2, HpNikR N32A (Helicobacter pylori G27, UniProt A1YSQ9 1-148, N32A)", "assay": "fluorescence anisotropy; apo (no Ni); FA: 5 nM DNA, 20 mM Tris pH 7.6, 100 mM NaCl, 3 mM MgSO4, temperature not stated (Ni loading 1.2 eq NiSO4 per monomer at RT). EMSA: 20 mM Tris pH 7.5, 100 mM KCl, 3 mM MgCl2, 0.1% IGEPAL, 5% glycerol, 0.1 mg/ml herring sperm DNA, RT; gel with 800 uM NiSO4 at 4 C", "conditions": "protein: recombinant; tags: none stated; chain copies: 4; label: fluorescein on internal thymine (T14 of strand 1); blunt"}, "HpNikR K31A": {"target": "HpNikR K31A (Helicobacter pylori G27, UniProt A1YSQ9 1-148, K31A)", "assay": "fluorescence anisotropy; Ni(II)-bound; FA: 5 nM DNA, 20 mM Tris pH 7.6, 100 mM NaCl, 3 mM MgSO4, temperature not stated (Ni loading 1.2 eq NiSO4 per monomer at RT). EMSA: 20 mM Tris pH 7.5, 100 mM KCl, 3 mM MgCl2, 0.1% IGEPAL, 5% glycerol, 0.1 mg/ml herring sperm DNA, RT; gel with 800 uM NiSO4 at 4 C", "conditions": "protein: recombinant; tags: none stated; chain copies: 4; label: fluorescein on internal thymine (T14 of strand 1); blunt"}, "HpNikR E62A [3]": {"target": "T1, HpNikR E62A", "assay": "fluorescence anisotropy; Ni(II)-bound; FA: 5 nM DNA, 20 mM Tris pH 7.6, 100 mM NaCl, 3 mM MgSO4, temperature not stated (Ni loading 1.2 eq NiSO4 per monomer at RT). EMSA: 20 mM Tris pH 7.5, 100 mM KCl, 3 mM MgCl2, 0.1% IGEPAL, 5% glycerol, 0.1 mg/ml herring sperm DNA, RT; gel with 800 uM NiSO4 at 4 C", "conditions": "protein: recombinant; tags: none stated; chain copies: 4; label: fluorescein on internal thymine (T14 of strand 1); blunt"}, "HpNikR Q81A": {"target": "HpNikR Q81A (Helicobacter pylori G27, UniProt A1YSQ9 1-148, Q81A)", "assay": "fluorescence anisotropy; Ni(II)-bound; FA: 5 nM DNA, 20 mM Tris pH 7.6, 100 mM NaCl, 3 mM MgSO4, temperature not stated (Ni loading 1.2 eq NiSO4 per monomer at RT). EMSA: 20 mM Tris pH 7.5, 100 mM KCl, 3 mM MgCl2, 0.1% IGEPAL, 5% glycerol, 0.1 mg/ml herring sperm DNA, RT; gel with 800 uM NiSO4 at 4 C", "conditions": "protein: recombinant; tags: none stated; chain copies: 4; label: fluorescein on internal thymine (T14 of strand 1); blunt"}, "HpNikR WT": {"target": "T3, HpNikR WT (Helicobacter pylori G27 (from vector …, UniProt A1YSQ9 1-148))", "T3 sequence": "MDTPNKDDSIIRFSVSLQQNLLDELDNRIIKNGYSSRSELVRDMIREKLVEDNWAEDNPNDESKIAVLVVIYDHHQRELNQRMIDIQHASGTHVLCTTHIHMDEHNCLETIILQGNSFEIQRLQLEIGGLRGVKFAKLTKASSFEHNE", "assay": "fluorescence anisotropy; Ni(II)-bound; FA: 5 nM DNA, 20 mM Tris pH 7.6, 100 mM NaCl, 3 mM MgSO4, temperature not stated (Ni loading 1.2 eq NiSO4 per monomer at RT). EMSA: 20 mM Tris pH 7.5, 100 mM KCl, 3 mM MgCl2, 0.1% IGEPAL, 5% glycerol, 0.1 mg/ml herring sperm DNA, RT; gel with 800 uM NiSO4 at 4 C", "conditions": "protein: recombinant; tags: none stated (untagged purification); chain copies: 4; label: fluorescein on internal thymine (T14 of strand 1); blunt"}, "HpNikR T92A": {"target": "HpNikR T92A (Helicobacter pylori G27, UniProt A1YSQ9 1-148, T92A)", "assay": "fluorescence anisotropy; Ni(II)-bound; FA: 5 nM DNA, 20 mM Tris pH 7.6, 100 mM NaCl, 3 mM MgSO4, temperature not stated (Ni loading 1.2 eq NiSO4 per monomer at RT). EMSA: 20 mM Tris pH 7.5, 100 mM KCl, 3 mM MgCl2, 0.1% IGEPAL, 5% glycerol, 0.1 mg/ml herring sperm DNA, RT; gel with 800 uM NiSO4 at 4 C", "conditions": "protein: recombinant; tags: none stated; chain copies: 4; label: fluorescein on internal thymine (T14 of strand 1); blunt"}, "HpNikR N32A [4]": {"target": "T2, HpNikR N32A", "assay": "fluorescence anisotropy; Ni(II)-bound; FA: 5 nM DNA, 20 mM Tris pH 7.6, 100 mM NaCl, 3 mM MgSO4, temperature not stated (Ni loading 1.2 eq NiSO4 per monomer at RT). EMSA: 20 mM Tris pH 7.5, 100 mM KCl, 3 mM MgCl2, 0.1% IGEPAL, 5% glycerol, 0.1 mg/ml herring sperm DNA, RT; gel with 800 uM NiSO4 at 4 C", "conditions": "protein: recombinant; tags: none stated; chain copies: 4; label: fluorescein on internal thymine (T14 of strand 1); blunt"}, "HpNikR E56A": {"target": "HpNikR E56A (Helicobacter pylori G27, UniProt A1YSQ9 1-148, E56A)", "assay": "fluorescence anisotropy; Ni(II)-bound; FA: 5 nM DNA, 20 mM Tris pH 7.6, 100 mM NaCl, 3 mM MgSO4, temperature not stated (Ni loading 1.2 eq NiSO4 per monomer at RT). EMSA: 20 mM Tris pH 7.5, 100 mM KCl, 3 mM MgCl2, 0.1% IGEPAL, 5% glycerol, 0.1 mg/ml herring sperm DNA, RT; gel with 800 uM NiSO4 at 4 C", "conditions": "protein: recombinant; tags: none stated; chain copies: 4; label: fluorescein on internal thymine (T14 of strand 1); blunt"}},
  "note": "Positions count from the first letter of the chain named.",
  "data": [
    {"binder": "B1", "values": [
      {"measurement": "Kd", "setting": "HpNikR I127A", "value": "4000 ± 1300", "unit": "nM"},
      {"measurement": "Kd", "setting": "HpNikR E62A [1]", "value": "2600 ± 200", "unit": "nM"},
      {"measurement": "Kd", "setting": "HpNikR N32A [2]", "value": "1600 ± 400", "unit": "nM"},
      {"measurement": "Kd", "setting": "HpNikR K31A", "value": "6.8 ± 1", "unit": "nM"},
      {"measurement": "Kd", "setting": "HpNikR E62A [3]", "value": "10.1 ± 1.1", "unit": "nM"},
      {"measurement": "Kd", "setting": "HpNikR Q81A", "value": "6.5 ± 1", "unit": "nM"},
      {"measurement": "Kd", "setting": "HpNikR WT", "value": "4.5 ± 0.6", "unit": "nM"},
      {"measurement": "Kd", "setting": "HpNikR T92A", "value": "3.6 ± 0.2", "unit": "nM"},
      {"measurement": "Kd", "setting": "HpNikR N32A [4]", "value": "4.8 ± 0.9", "unit": "nM"},
      {"measurement": "Kd", "setting": "HpNikR E56A", "value": "5.4 ± 0.1", "unit": "nM"}
    ]},
    {"binder": "B2", "values": [
      {"measurement": "Kd", "setting": "HpNikR I127A", "value": "4000 ± 300", "unit": "nM"},
      {"measurement": "Kd", "setting": "HpNikR E62A [1]", "value": "4200 ± 700", "unit": "nM"},
      {"measurement": "Kd", "setting": "HpNikR N32A [2]", "value": "1900 ± 700", "unit": "nM"},
      {"measurement": "Kd", "setting": "HpNikR K31A", "value": "4.1 ± 1", "unit": "nM"},
      {"measurement": "Kd", "setting": "HpNikR E62A [3]", "value": "2.9 ± 0.9", "unit": "nM"},
      {"measurement": "Kd", "setting": "HpNikR Q81A", "value": "3.9 ± 1.4", "unit": "nM"},
      {"measurement": "Kd", "setting": "HpNikR WT", "value": "4.7 ± 0.4", "unit": "nM"},
      {"measurement": "Kd", "setting": "HpNikR T92A", "value": "2.6 ± 0.5", "unit": "nM"},
      {"measurement": "Kd", "setting": "HpNikR N32A [4]", "value": "1.3 ± 0.4", "unit": "nM"},
      {"measurement": "Kd", "setting": "HpNikR E56A", "value": "5.9 ± 0.8", "unit": "nM"}
    ]}
  ]
}
